Article PMC9579148 (European Journal of Medicinal Chemistry, 2022)
No end group written: not given here.

Tests used:
[1] = biological target: recombinant SARS-CoV-2 M^pro (Proteros) (SARS-CoV-2); assay: cell-based or functional assay
[2] = biological target: recombinant SARS-CoV-2 M^pro (Proteros) (SARS-CoV-2); assay: FRET enzymatic inhibition assay

Binder | IC50 of inhibition of M^pro enzymatic activity (FRET substrate cleavage) [1] [µM] | Kd [2] [µM]
Pro-His-His-aldehyde [compound 9 (aldehydic tripeptide)] | > 170 | > 85
Ac-Gly-His-Tyr-aldehyde (SMILES CC(=O)NCC(=O)N[C@@H](Cc1c[nH]cn1)C(=O)N[C@H](C=O)Cc1ccc(O)cc1) [compound 7 (aldehydic tripeptide)] | > 425 | > 213
Ac-Gly-Tyr-His-aldehyde (SMILES CC(=O)NCC(=O)N[C@@H](Cc1ccc(O)cc1)C(=O)N[C@H](C=O)Cc1c[nH]cn1) [compound 8 (aldehydic tripeptide)] | 198 | 98.9 ± 11.9
Ac-Gly-His-His-aldehyde (SMILES CC(=O)NCC(=O)N[C@@H](Cc1c[nH]cn1)C(=O)N[C@H](C=O)Cc1c[nH]cn1) [compound 5 (aldehydic tripeptide)] | > 213 | > 107
